Target: T1, Narp (recombinant, expressed in transfected HEK-293 cells) (Rattus norvegicus (Rat), UniProt P97738 15-432)
T1 sequence: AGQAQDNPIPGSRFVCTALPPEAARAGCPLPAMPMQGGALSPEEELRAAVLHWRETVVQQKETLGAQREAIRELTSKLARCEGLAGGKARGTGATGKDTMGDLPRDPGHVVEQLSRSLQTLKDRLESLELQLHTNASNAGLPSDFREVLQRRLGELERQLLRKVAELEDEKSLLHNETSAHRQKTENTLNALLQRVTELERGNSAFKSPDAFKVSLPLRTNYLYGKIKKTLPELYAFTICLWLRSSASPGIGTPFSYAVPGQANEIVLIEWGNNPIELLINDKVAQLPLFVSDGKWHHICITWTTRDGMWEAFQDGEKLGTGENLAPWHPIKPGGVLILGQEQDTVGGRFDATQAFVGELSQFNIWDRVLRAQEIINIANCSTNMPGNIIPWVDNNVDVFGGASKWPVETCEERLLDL
Test: cell-based or functional assay

B1: C-terminal myc-tagged version of Narp (designated myc-Narp) (ligand, not shown: small tags and cut ends)
chain: AGQAQDNPIPGSRFVCTALPPEAARAGCPLPAMPMQGGALSPEEELRAAVLHWRETVVQQKETLGAQREAIRELTSKLARCEGLAGGKARGTGATGKDTMGDLPRDPGHVVEQLSRSLQTLKDRLESLELQLHTNASNAGLPSDFREVLQRRLGELERQLLRKVAELEDEKSLLHNETSAHRQKTENTLNALLQRVTELERGNSAFKSPDAFKVSLPLRTNYLYGKIKKTLPELYAFTICLWLRSSASPGIGTPFSYAVPGQANEIVLIEWGNNPIELLINDKVAQLPLFVSDGKWHHICITWTTRDGMWEAFQDGEKLGTGENLAPWHPIKPGGVLILGQEQDTVGGRFDATQAFVGELSQFNIWDRVLRAQEIINIANCSTNMPGNIIPWVDNNVDVFGGASKWPVETCEERLLDL
increase in intercellular myc-Narp*GluR1 co-clusters when untagged Narp is co-expressed with GluR1 in the apposing 293 cell: 2 fold

Source: patent publication US7217525 (Johns Hopkins, dated 2007)
